Patent US5932697A, “Synthetic antifreeze peptide” (Virginia Tech Intellectual Properties, Inc., priority 1991, dated 1999)

System: JM109 (DE3)
Assay: Studies of cell viability in strains expressing WF8R fusion proteins
Type: cell-based, E. coli
Settings: JM109 (DE3) [pX28] or [pX284], intracellular expression as P10 fusion; applicants' conclusion from cell viability studies
Excerpt: The pX28 and pX284 were transformed into JM109 (DE3). The proteins produced in either the JM109 (DE3) [pX28] or in the JM109 (DE3) [pX284] after induction by IPTG in mid- or late-logarithmic growth phase, have been analyzed by sodium dodecyl sulfate (SDS)--polyacrylamide gel electrophoresis (SDS-PAGE). […] Studies of cell viability in these strains have shown that both strains are adversely affected with respect to growth and stability of the plasmid (these effects were more pronounced in the pX28 harboring strain). […] To avert this problem the applicants decided to protect the fusion protein from intracellular degradation, as well as to protect the cells from the toxicity of WF8R, by adding to the fusion a C-terminal end derived from E. coli β-galactosidase.

B1: WF8R: synthetic 98 amino acid antifreeze peptide with eight eleven-amino-acid repeats, modeled on winter flounder AFP, expressed in E. coli (protein)
chain: MSTASDAAAAAAATAATAAAAAAATAATAAAAAAATAATAAAAAAATAATAAAAAAATAATAAAAAAATAATAAKAAALTAANAAAAAAATAAAAARG
toxicity to the cells (growth and stability of the plasmid adversely affected): toxic to the cells
